Results on one substance are retold here after paper PMC5906637.

Test [1] has as its target FXa.
Test [2] deals with human thrombin (human). Nature of the test: enzyme inhibition kinetics (amidolytic activity); thrombin (36.6 nM; 3.0 µl, 10 NIH/ml) with chromogenic substrate T1637 or FXa (0.13 µM) with F3301, lunathrombase 0-0.4 µM; Michaelis-Menten fit; competitive model for thrombin, non-competitive model for FXa.
In test [3] the target is FXa. The test is described as above.
The target in test [4] is human thrombin (human). As to the kind of experiment: other fluorescence titration; thrombin, FXa or fibrinogen (0.2 µM each) incubated with lunathrombase (0.2-1.0 µM in the methods, 0.2-1.4 µM in the legend) for 3 min at room temperature; excitation 280 nm, emission 300-425 nm; one site saturation binding curve.
The target of the next test is human fibrinogen (human) (UniProt P02671). The description is as above.
For test [5], the target named is FXa. The description is as above.

The term Ki denotes the equilibrium dissociation constant of an inhibitor or competing ligand from its target. Low readings indicate a stronger hold on the target, high ones a looser hold on the target. In general, Kd refers to the constant that tells how readily two partners part at equilibrium. The substance lunathrombase (enzyme) yielded an inhibition of prothrombin (1.4 µM) activation by FXa (0.13 µM) pre-incubated with lunathrombase (0.2 µM), SDS-PAGE with FXa [1] of 100%. The Ki with human thrombin (human) [2] amounted to 26.9 nM; with FXa [3], 10.3 nM. Moreover, the values for the Kd with human thrombin (human) [4], with human fibrinogen (human) and in the test with FXa [5] were 249 nM, 552 nM and 1910 nM, respectively.
